{"source": "patent US20250276070A1", "target": "hFcRn/β2-microglobulin complex (human) (UniProt P55899)", "sequence (P55899 24-297 limits assumed, chain 1 of 2)": "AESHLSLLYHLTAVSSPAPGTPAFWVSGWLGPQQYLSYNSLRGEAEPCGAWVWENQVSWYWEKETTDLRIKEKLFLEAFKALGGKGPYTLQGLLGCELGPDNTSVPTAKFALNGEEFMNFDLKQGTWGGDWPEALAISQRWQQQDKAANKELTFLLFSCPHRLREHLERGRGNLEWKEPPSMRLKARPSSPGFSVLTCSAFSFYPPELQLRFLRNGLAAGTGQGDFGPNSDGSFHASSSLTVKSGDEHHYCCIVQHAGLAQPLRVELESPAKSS", "sequence (P61769 21-119 limits assumed, chain 2 of 2, further chain)": "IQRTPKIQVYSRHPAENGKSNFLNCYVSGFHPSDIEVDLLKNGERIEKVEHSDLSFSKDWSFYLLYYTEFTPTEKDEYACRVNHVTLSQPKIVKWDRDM", "experiment": "BLI, His-tagged hFcRn/b2m on Ni-NTA, pH 5.6"}
{"substance": "T-01 MB IgG1 I253V", "values": [{"measurement": "fold higher affinity than the IgG1 control", "result": "> 1000", "unit": "fold"}]}
